Common to all, as to experiment: two-hybrid library CCNG1;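 note: natural log of median RNA to DNA barcode read ratio; higher means stronger binding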
In one test the target is T1, 4H968-bA.
T1 chain: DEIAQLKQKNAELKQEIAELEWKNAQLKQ

Another test deals with T2, 4H953-bA.
T2 chain: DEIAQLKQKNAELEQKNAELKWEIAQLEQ

The target of the next test is T3, 4H4073-bA.
T3 chain: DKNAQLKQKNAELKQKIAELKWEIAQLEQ

A further test has as its target T4, 4H780-bA.
T4 chain: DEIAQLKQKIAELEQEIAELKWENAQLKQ

A further test has as its target T5, 4H918-bA.
T5 chain: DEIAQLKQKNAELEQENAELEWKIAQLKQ

The next test has as its target T6, 4H2702-bA.
T6 chain: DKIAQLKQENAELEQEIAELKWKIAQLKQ

The target of the next test is T7, 4H754-bA.
T7 chain: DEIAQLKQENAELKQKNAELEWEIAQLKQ

In another test the target is T8, 4H3112-bA.
T8 chain: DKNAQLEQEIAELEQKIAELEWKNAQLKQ

For another test, the target named is T9, 4H2673-bA.
T9 chain: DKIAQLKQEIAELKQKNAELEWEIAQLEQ

The target of another test is T10, 4H3010-bA.
T10 chain: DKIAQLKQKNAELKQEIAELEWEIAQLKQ

In a further test the target is T11, 4H575-bA.
T11 chain: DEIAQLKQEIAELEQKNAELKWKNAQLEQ

In another test the target is T12, 4H3926-bA.
T12 chain: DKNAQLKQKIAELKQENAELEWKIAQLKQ

For the next test, the target named is T13, 4H3427-bA.
T13 chain: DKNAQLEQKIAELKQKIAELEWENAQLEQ

The target in a further test is T14, 4H683-bA.
T14 chain: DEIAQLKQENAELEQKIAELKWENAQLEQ

Another test concerns the target T15, 4H797-bA.
T15 chain: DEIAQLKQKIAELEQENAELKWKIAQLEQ

Another test addresses T16, 4H855-bA.
T16 chain: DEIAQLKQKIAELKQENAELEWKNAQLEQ

For another test, the target named is T17, 4H457-bA.
T17 chain: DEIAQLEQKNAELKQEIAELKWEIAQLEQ
As to conditions: mean of both orientations.

The next test has as its target T18, 4H2627-bA.
T18 chain: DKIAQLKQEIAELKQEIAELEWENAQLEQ

The target in a further test is T19, 4H346-bA.
T19 chain: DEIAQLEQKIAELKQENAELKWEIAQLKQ

A further test addresses T20, 4H796-bN.
T20 chain: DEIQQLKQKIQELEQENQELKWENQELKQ

The target in a further test is T21, 4H349-bN.
T21 chain: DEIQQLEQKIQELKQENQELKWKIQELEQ

A further test has as its target T22, 4H264-bN.
T22 chain: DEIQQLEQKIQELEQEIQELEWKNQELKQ

Another test addresses T23, 4H3381-bN.
T23 chain: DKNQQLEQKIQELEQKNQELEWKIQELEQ

The next test addresses T24, 4H3041-bN.
T24 chain: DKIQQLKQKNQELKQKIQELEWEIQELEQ

In a further test the target is T25, 4H3297-bN.
T25 chain: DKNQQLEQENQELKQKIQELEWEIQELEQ

A further test concerns the target T26, 4H3364-bN.
T26 chain: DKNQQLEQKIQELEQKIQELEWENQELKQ

Another test deals with T27, 4H346-bN.
T27 chain: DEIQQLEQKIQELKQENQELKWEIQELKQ

The next test concerns the target T28, 4H2859-bN.
T28 chain: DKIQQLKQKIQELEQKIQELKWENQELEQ

The target of the next test is T29, 4H2931-bN.
T29 chain: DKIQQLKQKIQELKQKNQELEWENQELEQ

For the next test, the target named is T30, 4H2585-bN.
T30 chain: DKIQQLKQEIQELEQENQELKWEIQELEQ

In another test the target is T31, 4H56-bN.
T31 chain: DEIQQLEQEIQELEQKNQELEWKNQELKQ

Another test deals with T32, 4H949-bN.
T32 chain: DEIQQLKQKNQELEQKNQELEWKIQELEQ

The target of another test is T33, 4H2760-bN.
T33 chain: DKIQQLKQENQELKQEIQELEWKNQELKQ

The target in the next test is T34, 4H730-bN.
T34 chain: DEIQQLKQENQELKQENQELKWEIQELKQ

In the next test the target is T35, 4H932-bN.
T35 chain: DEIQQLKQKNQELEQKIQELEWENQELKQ

A further test addresses T36, P6A-bA.
T36 chain: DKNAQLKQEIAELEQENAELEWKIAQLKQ

In the next test the target is T37, P8A-bA.
T37 chain: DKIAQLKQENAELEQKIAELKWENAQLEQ

The target of another test is T38, P5A-bA.
T38 chain: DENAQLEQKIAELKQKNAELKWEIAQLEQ

In a further test the target is T39, P7A-bA.
T39 chain: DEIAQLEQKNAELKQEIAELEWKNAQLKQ

The next test has as its target T40, P9A-bA.
T40 chain: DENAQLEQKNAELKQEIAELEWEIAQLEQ

DKIAQLKQEIAELKQEIAELEWENAQLEQ [4H2627-bA]: the interaction score in the test with 4H968-bA was -0.842; in the test with 4H953-bA it was -0.555; with 4H4073-bA, 1.07; with 4H780-bA, -0.421; with 4H918-bA, -1.03; in the test with 4H2702-bA it was 0.286. The interaction score is -1.42 with 4H754-bA; 0.764 with 4H3112-bA; -0.531 with 4H2673-bA; -0.0123 in the test with 4H3010-bA; 0.64 with 4H575-bA; -0.308 in the test with 4H3926-bA. The interaction score with 4H3427-bA was 1.03; with 4H683-bA, -0.856; with 4H797-bA, -1.1; with 4H855-bA, -1.42; with 4H457-bA, -0.508; with 4H2627-bA it was 0.441. The molecule further registered an interaction score with 4H346-bA of -1.21.
Take DKIQQLKQEIQELEQENQELKWEIQELEQ [4H2585-bN]: the interaction score with 4H796-bN was -0.881; in the test with 4H349-bN, 1.61; with 4H264-bN, -0.828; with 4H3381-bN, -2.06; with 4H3041-bN, -0.321; with 4H3297-bN, -0.64. The interaction score with 4H3364-bN was -0.855; in the test with 4H346-bN it was 2.36; with 4H2859-bN, 0.161; in the test with 4H2931-bN, -0.905; with 4H2585-bN, -0.804; in the test with 4H56-bN, -0.978. Moreover, the interaction score in the test with 4H949-bN is -0.975; with 4H2760-bN it was -1.01; with 4H730-bN, -0.949; with 4H932-bN, -1.52.
As to DENAQLEQKIAELKQKNAELKWEIAQLEQ [P5A-bA], the interaction score was 2.33 with P6A-bA; 0.0376 with P8A-bA; -1.22 with P5A-bA; -1.32 with P7A-bA; -0.7 with P9A-bA.

These data come from paper PMC10397247.
